This test concerns the target human transferrin receptor (hTfR) (human), P02786. Put plainly: SPR of naked peptide on hTfR; B = KD between 1 nM and 100 nM.

Here are results for 1 molecule from patent US20240366775A1, “HUMAN TRANSFERRIN RECEPTOR BINDING ANTIBODY-PEPTIDE CONJUGATE” (PEPTIDREAM INC., priority 2021, published 2024).

human transferrin receptor (hTfR) (human), P02786, sequence (P02786 89-760 limits assumed): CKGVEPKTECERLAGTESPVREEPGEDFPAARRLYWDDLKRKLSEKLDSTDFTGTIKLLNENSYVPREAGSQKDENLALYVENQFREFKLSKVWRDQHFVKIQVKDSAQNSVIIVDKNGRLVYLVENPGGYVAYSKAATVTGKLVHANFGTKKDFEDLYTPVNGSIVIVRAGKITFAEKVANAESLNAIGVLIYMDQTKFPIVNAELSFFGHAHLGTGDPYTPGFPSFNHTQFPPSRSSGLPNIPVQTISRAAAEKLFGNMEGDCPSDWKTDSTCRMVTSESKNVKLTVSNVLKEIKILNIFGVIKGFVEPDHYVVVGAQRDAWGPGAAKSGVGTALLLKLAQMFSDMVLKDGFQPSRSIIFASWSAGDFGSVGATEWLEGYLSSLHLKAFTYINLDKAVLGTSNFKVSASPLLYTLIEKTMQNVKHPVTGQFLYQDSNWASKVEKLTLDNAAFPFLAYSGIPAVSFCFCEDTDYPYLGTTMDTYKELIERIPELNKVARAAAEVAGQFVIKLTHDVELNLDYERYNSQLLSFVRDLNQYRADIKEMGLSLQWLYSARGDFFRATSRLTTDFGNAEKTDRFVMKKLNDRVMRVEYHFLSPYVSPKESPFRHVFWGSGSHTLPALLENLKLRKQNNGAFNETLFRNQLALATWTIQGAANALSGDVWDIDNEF

As to AVFVWNYYIISC (modifications not checked) [naked peptide (1st to 12th amino acids) of SEQ ID NO: 14, peptide 36], the KD (usually the concentration at which binding is half-saturated) lay in the range of 1 to 100 nM.
